{"source": "patent US20230069055A1", "about": "(BOLT BIOTHERAPEUTICS, published 2023)", "binders": {"B1": {"name": "48 (antibody, V domains shown)", "VH": "QVQLVQSGAEVKKPGASVKVSCKASGYTFTSYYMHWVRQAPGQGLEWMGWINPNSGNTGYAQKFQGRVTMTRDTSTSTVYMELSSLRSEDTAVYYCARDDWGGDWFDYWGQGTLVTVSS", "VL": "DIQMTQSPSSLSASVGDRVTITCQASQDISNHLNWYQQKPGKAPKLLIYGASNLQRGVPSRFSGSGSGTDFTLTISSLQPEDFATYYCQQSYSTPITFGQGTRLEIK"}, "B2": {"name": "45 (antibody, V domains shown)", "VH": "QVQLVQSGAEVKKPGASVKVSCKASGYTFSSYYMHWVRQAPGQGLEWMGWITTNSGITGYAQKFQGRVTMTRDTSTSTVYMELSSLRSEDTAVYYCAREGYSSGLDYWGQGTLVTVSS", "VL": "not shown"}, "B3": {"name": "13 (antibody, V domains shown)", "VH": "QVQLVQSGAEVKKPGASVKVSCKASGYTFTNYYMHWVRQAPGQGLEWMGWMSPSSGITGYAQKFQGRVTMTRDTSTSTVYMELSSLRSEDTAVYYCAREAWFGELSTWGQGTLVTVSS", "VL": "B1 VL with Q24R, D28N, H32F, G50A, N53S, R56S, T94L, I96Y, R103K, L104V"}, "B4": {"name": "12 (antibody, V domains shown)", "VH": "QVQLVQSGAEVKKPGASVKVSCKASGYTFTGYYMHWMRQAPGQGLEWIGWMSPYNGITGYAQKFQGRVTMTRDTSTSTVYMELSSLRSEDTAVYYCAREVIEVGMDVWGQGTTVTVSS", "VL": "B1 VL with Q24R, D28S, N31S, H32W, N34A, G50A, N53H, R56S, I96Y"}, "B5": {"name": "47 (antibody, V domains shown)", "VH": "QVQLVQSGAEVKKPGASVKVSCKASGYTFTGYYMHWVRQAPGQGLEWMGWINPNSGTTGYAQNFQGRVTMTRDTSTSTVYMELSSLRSEDTAVYYCAREGFGPNAFDIWGQGTTVTVSS", "VL": "DIQMTQSPSSLSASVGDRVTITCRASQSISSWLAWYQQKPGKAPKLLIYAASNLQSGVPSRFSGSGSGTDFTLTISSLQPEDFATYYCQQYYSTPYTFGQGTKVEIK"}, "B6": {"name": "49 (antibody, V domains shown)", "VH": "QVQLVQSGAEVKKPGASVKVSCKASGYTFTDHYLHWVRQAPGQGLEWMGWINPNIGNTGYAQKFQGRVTMTRDTSTSTVYMELSSLRSEDTAVYYCAREPLQLGGFDYWGQGTLVTVSS", "VL": "B5 VL with Q27E, N53S, Y91S, Y96L, V104L"}, "B7": {"name": "46 (antibody, V domains shown)", "VH": "QVQLVQSGAEVKKPGASVKVSCKASGYTFSTHYMHWVRQAPGQGLEWMGWINPNSGHAGSAQKFQGRVTMTRDTSTSTVYMELSSLRSEDTAVYYCARESIAVAGYDYWGQGTLVTVSS", "VL": "B5 VL with N53T, S56R, Y91S, V104L"}, "B8": {"name": "PD-L1 binding agent 1 (antibody, V domains shown)", "VH": "QVQLVQSGAEVKKPGASVKVSCKASGYTFSSDYMHWVRQAPGQGLEWMGWMSPYNGITGYAQKFQGRVTMTRDTSTSTVYMELSSLRSEDTAVYYCARDRFSGSYDYWGQGTLVTVSS", "VL": "not shown"}, "B9": {"name": "PD-L1 binding agent 16 (antibody, V domains shown)", "VH": "QVQLVQSGAEVKKPGASVKVSCKASGYTLPNYIHWVRQAPGQGLEWMGWIHPRSGATGYAPKFQGRVTMTRDTSTSTVYMELSSLRSEDTAVYYCARDSVFGLDYWGQGTLVTVSS", "VL": "not shown"}, "B10": {"name": "PD-L1 binding agent 15 (antibody, V domains shown)", "VH": "QVQLVQSGAEVKKPGASVKVSCKASGYTFTRHYVHWVRQAPGQGLEWMGWMNPNSGSAGYAQKFQGRVTMTRDTSTSTVYMELSSLRSEDTAVYYCARERGYNAFDYWGQGTLVTVSS", "VL": "EIVMTQSPATLSVSPGERATLSCRASQSLSSSYLAWYQQKPGQAPRLLIYGASTRATGIPARFSGSGSGTEFTLTISSLQSEDFAVYYCHQYFTTPLTFGQGTRLEIK"}, "B11": {"name": "PD-L1 binding agent 7 (antibody, V domains shown)", "VH": "B1 VH with I51M, Y108P", "VL": "B1 VL"}, "B12": {"name": "PD-L1 binding agent 3 (antibody, V domains shown)", "VH": "B2 VH with I51M", "VL": "not shown"}, "B13": {"name": "PD-L1 binding agent 4 (antibody, V domains shown)", "VH": "QVQLVQSGAEVKKPGSSVKVSCKASGYTFTGYYIHWVRQAPGQGLEWMGGIIPIFGTASYAQKFQGRVTITADESTSTAYMELSSLRSEDTAVYYCARDGRFWSGYPDYWGQGTLVTVSS", "VL": "B5 VL with S28G, S31N, W32Y, A50R, Q55E, Y91S, Y96L, Q100G"}, "B14": {"name": "PD-L1 binding agent 6 (antibody, V domains shown)", "VH": "QVQLVQSGAEVKKPGASVKVSCKASGYTFTSHDINWVRQAPGQGLEWMGWMNPNSGNTGYAQKFQGRVTMTRDTSTSTVYMELSSLRSEDTAVYYCARDRWYMGSADYWGQGTLVTVSS", "VL": "B5 VL with S31T, N53T, Y91S, Y96F"}, "B15": {"name": "PD-L1 binding agent 9 (antibody, V domains shown)", "VH": "B6 VH with K13E, I51M", "VL": "B5 VL with Q27E, N53S, Y91S, Y96L, V104L"}, "B16": {"name": "PD-L1 binding agent 10 (antibody, V domains shown)", "VH": "B5 VH with I51M, S55G", "VL": "B5 VL"}, "B17": {"name": "PD-L1 binding agent 5 (antibody, V domains shown)", "VH": "B7 VH with I51M", "VL": "B5 VL with N53T, S56R, Y91S, V104L"}, "B18": {"name": "PD-L1 binding agent 14 (antibody, V domains shown)", "VH": "QVQLVQSGAEVKKPGASVKVSCKASGYNFSAYYVHWVRQAPGQGLEWMGWMNPNRGITDSAQKFQGRVTMTRDTSTSTVYMELSSLRSEDTAVYYCAREAYVAAFDIWGQGTTVTVSS", "VL": "B5 VL with S28G, N53S, Y91S, Y96L, Q100G"}, "B19": {"name": "PD-L1 binding agent 11 (antibody, V domains shown)", "VH": "B1 VH with S31G, I51M, D100S, G102Y, Y108P", "VL": "B5 VL with I29V, S30G, A50G, N53S, Y91S, Y96L, Q100G"}}, "note": "Where a chain is given by its changes, count along the chain named.", "data": [{"target": "T1, human PD-L1 (hPD-L1), endogenous on JIMT-1 cells (human, UniProt Q9NZQ7 19-290)", "T1 construct": "The assay used endogenous hPD-L1 on JIMT-1 cells; also called programmed death-ligand 1; CD274", "T1 sequence (Q9NZQ7 19-290 limits assumed)": "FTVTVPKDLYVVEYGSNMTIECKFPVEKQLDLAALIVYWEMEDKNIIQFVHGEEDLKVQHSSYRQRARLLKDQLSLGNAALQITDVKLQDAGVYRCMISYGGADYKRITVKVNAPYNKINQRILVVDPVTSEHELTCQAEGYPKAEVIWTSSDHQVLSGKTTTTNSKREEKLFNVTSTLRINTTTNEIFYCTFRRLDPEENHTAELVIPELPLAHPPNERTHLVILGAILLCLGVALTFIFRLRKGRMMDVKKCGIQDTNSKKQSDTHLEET", "assay": "flow cytometry, JIMT-1 cells with endogenous hPD-L1, fluorescent anti-human IgG Fc secondary, geometric MFI", "procedure": "Diluted binding agents were applied to JIMT-1 cells (˜1×10⁵-2×10⁵ per well) and incubated at 4° C. […] After unbound secondary antibody was washed out, cells were resuspended in FACS buffer plus 2% formaldehyde and analyzed by flow cytometry.", "values": [{"binder": "B1", "binding result": "binds"}, {"binder": "B2", "binding result": "binds"}, {"binder": "B3", "binding result": "binds"}, {"binder": "B4", "binding result": "binds"}, {"binder": "B5", "binding result": "binds"}, {"binder": "B6", "binding result": "binds"}, {"binder": "B7", "binding result": "binds"}]}, {"target": "PD-L1 on CHO-K1/PD-L1/alphaAPC stimulator cells (UniProt Q9NZQ7 19-290, limits assumed)", "sequence (Q9NZQ7 19-290 limits assumed)": "as above", "assay": "cell-based or functional assay", "units": {"PD-L1/PD-1 blockade EC50 (nM)": "nM", "PD-L1/PD-1 blockade EC50 (ng/ml)": "ng/mL"}, "values": [{"binder": "B8", "PD-L1/PD-1 blockade EC50 (nM)": 0.74, "PD-L1/PD-1 blockade EC50 (ng/ml)": 106}, {"binder": "B9", "PD-L1/PD-1 blockade EC50 (nM)": 1.25, "PD-L1/PD-1 blockade EC50 (ng/ml)": 181}, {"binder": "B10", "PD-L1/PD-1 blockade EC50 (nM)": 1.13, "PD-L1/PD-1 blockade EC50 (ng/ml)": 164}, {"binder": "B11", "PD-L1/PD-1 blockade EC50 (nM)": 0.73, "PD-L1/PD-1 blockade EC50 (ng/ml)": 106}, {"binder": "B12", "PD-L1/PD-1 blockade EC50 (nM)": 0.33, "PD-L1/PD-1 blockade EC50 (ng/ml)": 47.3}, {"binder": "B13", "PD-L1/PD-1 blockade EC50 (nM)": 0.85, "PD-L1/PD-1 blockade EC50 (ng/ml)": 124}, {"binder": "B14", "PD-L1/PD-1 blockade EC50 (nM)": 0.73, "PD-L1/PD-1 blockade EC50 (ng/ml)": 106}, {"binder": "B15", "PD-L1/PD-1 blockade EC50 (nM)": 0.67, "PD-L1/PD-1 blockade EC50 (ng/ml)": 97.3}, {"binder": "B16", "PD-L1/PD-1 blockade EC50 (nM)": 0.47, "PD-L1/PD-1 blockade EC50 (ng/ml)": 67.4}, {"binder": "B17", "PD-L1/PD-1 blockade EC50 (nM)": 0.37, "PD-L1/PD-1 blockade EC50 (ng/ml)": 54.3}, {"binder": "B18", "PD-L1/PD-1 blockade EC50 (nM)": 1.15, "PD-L1/PD-1 blockade EC50 (ng/ml)": 166}, {"binder": "B19", "PD-L1/PD-1 blockade EC50 (nM)": 0.37, "PD-L1/PD-1 blockade EC50 (ng/ml)": 53.6}]}]}
